± gives the uncertainty stated by the source.

The chains are these.
B1: Zinc finger protein ZIC 2, residues 250 to 295; numbered along this chain, O95409 (parent)
chain: QCIKQELICKWIDPEQLSNPKKSCNKTFSTMHELVTHVSVEHVGGP

Variants of B1 are the subject of the data set. Put plainly: abundance fitness (aPCA) (normalised: wild type 0, dead -1); higher = more abundant; growth selection in yeast, the domain comes from the species named. The following applies: Homo sapiens.
Regarding QCIKQELICKWIDPEQLSNPHKSCNKTFSTMHELVTHVSVEHVGGP [K21H], the abundance fitness amounted to 0.016 ± 0.11.

As to QCIKQELICKWIDPEQLSNPGKSCNKTFSTMHELVTHVSVEHVGGP [K21G], the abundance fitness was -0.12 ± 0.086.

Consider QCIKQELICKWIDPEQLSNPKKSKNKTFSTMHELVTHVSVEHVGGP [C24K], for which the abundance fitness was -0.979 ± 0.13.

QCIKQELICKWIDPEQLSNPKKSGNKTFSTMHELVTHVSVEHVGGP [C24G]: the abundance fitness was -0.61 ± 0.088.

Take QCIKQELICKWIDPEQLSNPKKSNNKTFSTMHELVTHVSVEHVGGP [C24N]: the abundance fitness was -0.798 ± 0.16.

On to QCIKQELICKWIDPEQLSNPKKSTNKTFSTMHELVTHVSVEHVGGP [C24T], for which the abundance fitness was -0.8 ± 0.11.

As for QCIKQELICKWIDPEQLSNPKKSQNKTFSTMHELVTHVSVEHVGGP [C24Q], the abundance fitness was -0.764 ± 0.12.

In the case of QCIKQELICKWIDPEQLSNPKKSYNKTFSTMHELVTHVSVEHVGGP [C24Y], the abundance fitness is -0.994 ± 0.13.

In the case of QCIKQELICKWIDPEQLSNPKKSENKTFSTMHELVTHVSVEHVGGP [C24E], the abundance fitness was -0.488 ± 0.099.

For the variant QCIKQELICKWIDPEQLSNPKKSPNKTFSTMHELVTHVSVEHVGGP [C24P], the abundance fitness is -0.889 ± 0.13.

Regarding QCIKQELICKWIDPEQLSNPKKSHNKTFSTMHELVTHVSVEHVGGP [C24H], the abundance fitness is -0.698 ± 0.16.

Regarding QCIKQELICKWIDPEQLSNPKKSMNKTFSTMHELVTHVSVEHVGGP [C24M], the abundance fitness was -0.906 ± 0.12.

For the variant QCIKQELICKWIDPEQLSNPKKSWNKTFSTMHELVTHVSVEHVGGP [C24W], the abundance fitness was -0.868 ± 0.1.

As for QCIKQELICKWIDPEQLSNPKKSFNKTFSTMHELVTHVSVEHVGGP [C24F], the abundance fitness was -1.05 ± 0.13.

As for QCIKQELICKWIDPEQLSNPKKSANKTFSTMHELVTHVSVEHVGGP [C24A], the abundance fitness was -0.836 ± 0.1.

Regarding QCIKQELICKWIDPEQLSNPKKSVNKTFSTMHELVTHVSVEHVGGP [C24V], the abundance fitness was -0.86 ± 0.097.

For QCIKQELICKWIDPEQLSNPKKSSNKTFSTMHELVTHVSVEHVGGP [C24S], the abundance fitness was -0.766 ± 0.094.

Consider QCIKQELICKWIDPEQLSNPKKSINKTFSTMHELVTHVSVEHVGGP [C24I], for which the abundance fitness is -1.12 ± 0.18.

QCIKQELICKWIDPEQLSNPKKSLNKTFSTMHELVTHVSVEHVGGP [C24L]: the abundance fitness is -0.901 ± 0.1.

On to QCIKQELICKWIDPEQLSNPKKSRNKTFSTMHELVTHVSVEHVGGP [C24R], for which the abundance fitness was -0.841 ± 0.093.

In the case of QCIKQELICKWIDPEQLSTPKKSCNKTFSTMHELVTHVSVEHVGGP [N19T], the abundance fitness was determined as 0.118 ± 0.099.

In the case of QCIKQELICKWIDPEQLSPPKKSCNKTFSTMHELVTHVSVEHVGGP [N19P], the abundance fitness is -0.104 ± 0.1.

Consider QCIKQELICKWIDPEQLSVPKKSCNKTFSTMHELVTHVSVEHVGGP [N19V], for which the abundance fitness came out at 0.007 ± 0.087.

With QCIKQELICKWIDPEQLSFPKKSCNKTFSTMHELVTHVSVEHVGGP [N19F], the abundance fitness was -0.166 ± 0.15.

With QCIKQELICKWIDPEQLSKPKKSCNKTFSTMHELVTHVSVEHVGGP [N19K], the abundance fitness is -0.012 ± 0.1.

Take QCIKQELICKWIDPEQLSWPKKSCNKTFSTMHELVTHVSVEHVGGP [N19W]: the abundance fitness is -0.74 ± 0.1.

Regarding QCIKQELICKWIDPEQLSRPKKSCNKTFSTMHELVTHVSVEHVGGP [N19R], the abundance fitness is -0.053 ± 0.085.

In the case of QCIKQELICKWIDPEQLSYPKKSCNKTFSTMHELVTHVSVEHVGGP [N19Y], the abundance fitness is -0.451 ± 0.13.

In the case of QCIKQELICKWIDPEQLSCPKKSCNKTFSTMHELVTHVSVEHVGGP [N19C], the abundance fitness is -0.957 ± 0.12.

Regarding QCIKQELICKWIDPEQLSDPKKSCNKTFSTMHELVTHVSVEHVGGP [N19D], the abundance fitness was -0.092 ± 0.11.

In the case of QCIKQELICKWIDPEQLSQPKKSCNKTFSTMHELVTHVSVEHVGGP [N19Q], the abundance fitness was determined as 0.132 ± 0.099.

On to QCIKQELICKWIDPEQLSMPKKSCNKTFSTMHELVTHVSVEHVGGP [N19M], for which the abundance fitness is -0.067 ± 0.099.

QCIKQELICKWIDPEQLSEPKKSCNKTFSTMHELVTHVSVEHVGGP [N19E]: the abundance fitness is -0.006 ± 0.093.

Consider QCIKQELICKWIDPEQLSLPKKSCNKTFSTMHELVTHVSVEHVGGP [N19L], for which the abundance fitness was -0.17 ± 0.088.

For QCIKQELICKWIDPEQLSAPKKSCNKTFSTMHELVTHVSVEHVGGP [N19A], the abundance fitness was -0.131 ± 0.091.

Turning to QCIKQELICKWIDPEQLSIPKKSCNKTFSTMHELVTHVSVEHVGGP [N19I], the abundance fitness was 0.164 ± 0.13.

Turning to QCIKQELICKWIDPEQLSHPKKSCNKTFSTMHELVTHVSVEHVGGP [N19H], the abundance fitness was 0.056 ± 0.13.

Turning to QCIKQELICKWIDPEQLSSPKKSCNKTFSTMHELVTHVSVEHVGGP [N19S], the abundance fitness was -0.079 ± 0.089.

Consider QCIKQELICKWIDPEQLSNPKKPCNKTFSTMHELVTHVSVEHVGGP [S23P], for which the abundance fitness was found to be 0.043 ± 0.11.

QCIKQELICKWIDPEQLSNPKKECNKTFSTMHELVTHVSVEHVGGP [S23E]: the abundance fitness amounted to 0.002 ± 0.1.

As to QCIKQELICKWIDPEQLSNPKKVCNKTFSTMHELVTHVSVEHVGGP [S23V], the abundance fitness was determined as 0.107 ± 0.091.

In the case of QCIKQELICKWIDPEQLSNPKKHCNKTFSTMHELVTHVSVEHVGGP [S23H], the abundance fitness came out at 0.156 ± 0.12.

Take QCIKQELICKWIDPEQLSNPKKFCNKTFSTMHELVTHVSVEHVGGP [S23F]: the abundance fitness was 0.14 ± 0.13.

Regarding QCIKQELICKWIDPEQLSNPKKCCNKTFSTMHELVTHVSVEHVGGP [S23C], the abundance fitness came out at 0.029 ± 0.098.

On to QCIKQELICKWIDPEQLSNPKKTCNKTFSTMHELVTHVSVEHVGGP [S23T], for which the abundance fitness stood at 0.193 ± 0.1.

Consider QCIKQELICKWIDPEQLSNPKKKCNKTFSTMHELVTHVSVEHVGGP [S23K], for which the abundance fitness is 0.309 ± 0.11.

Consider QCIKQELICKWIDPEQLSNPKKQCNKTFSTMHELVTHVSVEHVGGP [S23Q], for which the abundance fitness came out at 0.226 ± 0.1.

For QCIKQELICKWIDPEQLSNPKKACNKTFSTMHELVTHVSVEHVGGP [S23A], the abundance fitness was found to be 0.316 ± 0.09.

Regarding QCIKQELICKWIDPEQLSNPKKGCNKTFSTMHELVTHVSVEHVGGP [S23G], the abundance fitness was 0.111 ± 0.084.

Take QCIKQELICKWIDPEQLSNPKKLCNKTFSTMHELVTHVSVEHVGGP [S23L]: the abundance fitness worked out at 0.282 ± 0.09.

QCIKQELICKWIDPEQLSNPKKICNKTFSTMHELVTHVSVEHVGGP [S23I]: the abundance fitness is 0.095 ± 0.17.

For the variant QCIKQELICKWIDPEQLSNPKKDCNKTFSTMHELVTHVSVEHVGGP [S23D], the abundance fitness is -0.287 ± 0.11.

On to QCIKQELICKWIDPEQLSNPKKWCNKTFSTMHELVTHVSVEHVGGP [S23W], for which the abundance fitness was -0.01 ± 0.088.

Take QCIKQELICKWIDPEQLSNPKKRCNKTFSTMHELVTHVSVEHVGGP [S23R]: the abundance fitness was 0.566 ± 0.084.

With QCIKQELICKWIDPEQLSNPKKMCNKTFSTMHELVTHVSVEHVGGP [S23M], the abundance fitness was 0.246 ± 0.098.

As to QCIKQELICKWIDPEQLSNPKKYCNKTFSTMHELVTHVSVEHVGGP [S23Y], the abundance fitness came to 0.079 ± 0.15.
